Laboratory results from article PMC7820937.
Read-outs that look alike come from different tables or passages of the source.

Columns and labels:
Experiment in all cases: ELISA
[1] = biological target: C4BP α-chain deletant ΔCCP5 (human) (UniProt P04003)
[2] = biological target: C4BP α-chain deletant ΔCCP4 (human) (UniProt P04003)
[3] = biological target: C4BP α-chain deletant ΔCCP6 (human) (UniProt P04003)
[4] = biological target: C4BP α-chain deletant ΔCCP1 (human) (UniProt P04003)
[5] = biological target: C4BP α-chain deletant ΔCCP7 (human) (UniProt P04003)
[6] = biological target: C4BP α-chain deletant ΔCCP5 (human) (UniProt P04003); remark: listed apart in the source
[7] = biological target: C4BP α-chain deletant ΔCCP3 (human) (UniProt P04003)
[8] = biological target: C4BP α-chain deletant ΔCCP8 (human) (UniProt P04003)
[9] = biological target: C4BP α-chain deletant ΔCCP2 (human) (UniProt P04003)
[10] = biological target: C4BP α-chain deletant ΔCCP4 (human) (UniProt P04003); remark: listed apart in the source

| Substance | percent loss of binding against full-length C4BP [1] [%] | percent loss of binding against full-length C4BP [2] [%] | percent increase of binding against full-length C4BP [3] [%] | percent loss of binding against full-length C4BP [4] [%] | percent loss of binding against full-length C4BP [5] [%] | percent loss of binding against full-length C4BP [6] [%] | percent increase of binding against full-length C4BP [7] [%] | percent loss of binding against full-length C4BP [8] [%] | percent loss of binding against full-length C4BP [9] [%] | percent loss of binding against full-length C4BP [10] [%] |
| --- | --- | --- | --- | --- | --- | --- | --- | --- | --- | --- |
| Influenza A virus A/England/2009 (H1N1), whole virus particles (complex) | 67 | 67 | 10 | 20 | 49 | 60 | 10 | 75 | 20 | 60 |
| Influenza A virus A/HK/99 (H3N2), whole virus particles (complex) |  |  | 10 | 80 | 62 | 80 | 10 | 75 | 80 | 80 |
